Measurements: publication PMC8754639

T1: NONO (53-312) (UniProt Q15233 53-312)
T1 sequence: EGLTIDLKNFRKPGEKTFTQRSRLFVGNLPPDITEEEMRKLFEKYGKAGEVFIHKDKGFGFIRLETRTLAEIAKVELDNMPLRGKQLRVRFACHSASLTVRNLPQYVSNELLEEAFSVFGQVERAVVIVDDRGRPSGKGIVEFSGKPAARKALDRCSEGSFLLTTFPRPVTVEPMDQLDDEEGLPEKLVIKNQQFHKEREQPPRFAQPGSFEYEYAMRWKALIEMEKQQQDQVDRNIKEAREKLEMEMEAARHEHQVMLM

T2: RHAU53 peptide (UniProt Q9H2U1 53-105)
T2 sequence: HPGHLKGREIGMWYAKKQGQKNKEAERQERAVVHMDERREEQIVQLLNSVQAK

T3: DHX36 (RHAU) (UniProt Q9H2U1 1-1008)
T3 sequence: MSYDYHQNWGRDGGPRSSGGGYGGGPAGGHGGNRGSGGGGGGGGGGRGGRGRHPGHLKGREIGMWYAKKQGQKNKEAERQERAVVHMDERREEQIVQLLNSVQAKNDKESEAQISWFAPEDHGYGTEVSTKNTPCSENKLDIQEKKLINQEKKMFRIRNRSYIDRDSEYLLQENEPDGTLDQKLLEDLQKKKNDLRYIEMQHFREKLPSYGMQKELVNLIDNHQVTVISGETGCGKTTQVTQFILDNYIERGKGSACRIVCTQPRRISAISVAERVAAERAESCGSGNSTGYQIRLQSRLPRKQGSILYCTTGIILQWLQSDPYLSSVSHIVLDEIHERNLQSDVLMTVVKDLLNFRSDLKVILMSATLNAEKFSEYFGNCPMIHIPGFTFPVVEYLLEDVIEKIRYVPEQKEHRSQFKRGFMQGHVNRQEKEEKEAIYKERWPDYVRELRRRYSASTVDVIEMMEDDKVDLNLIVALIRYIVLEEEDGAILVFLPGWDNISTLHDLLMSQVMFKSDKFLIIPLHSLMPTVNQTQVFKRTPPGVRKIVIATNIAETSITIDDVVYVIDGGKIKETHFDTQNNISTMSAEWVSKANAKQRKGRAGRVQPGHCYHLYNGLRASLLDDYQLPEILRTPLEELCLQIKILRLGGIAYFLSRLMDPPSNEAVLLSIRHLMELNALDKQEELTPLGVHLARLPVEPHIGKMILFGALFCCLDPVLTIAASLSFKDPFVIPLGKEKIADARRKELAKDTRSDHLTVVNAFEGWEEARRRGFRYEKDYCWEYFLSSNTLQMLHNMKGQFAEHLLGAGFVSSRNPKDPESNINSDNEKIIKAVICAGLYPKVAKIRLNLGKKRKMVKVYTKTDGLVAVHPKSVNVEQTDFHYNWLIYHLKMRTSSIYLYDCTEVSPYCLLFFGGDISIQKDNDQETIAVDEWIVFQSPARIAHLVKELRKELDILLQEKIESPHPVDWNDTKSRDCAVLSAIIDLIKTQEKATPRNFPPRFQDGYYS


Tests used:
NONO (53-312) [1] = molecular target: T1, NONO (53-312); assay: EMSA
NONO (53-312) [2] = molecular target: T1, NONO (53-312); assay: filter binding
RHAU53 peptide = molecular target: T2, RHAU53 peptide; assay: MST competition
DHX36 (RHAU) = molecular target: T3, DHX36 (RHAU); assay: MST

| Binder | Kd (NONO (53-312) [1]) | binding result (NONO (53-312) [2]) | IC50 (RHAU53 peptide) | Kd (DHX36 (RHAU)) |
| --- | --- | --- | --- | --- |
| AGGGGAGGGAAAGGGGGAAAGCGGGC (structured_RNA) [MALAT1 rG4_09 (FAM)] | 80.9 ± 18.1 nM | – | – | – |
| AGAAGAGAGAAAGAAAGAAAGCGAGC (ssRNA) [MALAT1 rG4_09 MUT (biotin)] | – | no binding | – | – |
| AGGGUGGGCUUUUGUUGAUGAGGGAGGGGA (structured_RNA) [MALAT1 rG4_04 (FAM)] | 46.9 ± 12.1 nM | – | 621 ± 95.3 nM | 130 ± 16 nM |
